# Test results reported in patent publication US20260042827A1 (UNIVERSITY HEALTH NETWORK, published 2026).
# T1: WT1330-348
# T1 construct: also called WT1 peptide
# T1 peptide: CNKRYFKLSHLQMHSRKHT
# T2: WT1330-348 presented by DP5 on K562 cells (human, UniProt P20036 29-260; P04440 30-258)
# T2 construct: whole, on cells; Exogenously pulsed peptide
# T2 MHC II alpha: not shown
# T2 MHC II beta: not shown
# T2 peptide: CNKRYFKLSHLQMHSRKHT
# T3: WT1330-348 presented by DP2 on K562 cells (human, UniProt P20036 29-260; P04440 30-258)
# T3 construct: whole, on cells; Exogenously pulsed peptide
# T3 MHC II alpha: not shown
# T3 MHC II beta: not shown
# T3 peptide: CNKRYFKLSHLQMHSRKHT
# T4: HLA-DP2 (human, UniProt P20036 29-222; P04440 30-225, limits assumed)
# T4 construct: whole, on cells; also called T2 cells transduced with DP2
# T4 MHC II alpha: not shown
# T4 MHC II beta: not shown
# Tests used:
# WT1330-348 = target: T1, WT1330-348; assay: biolayer interferometry (Octet Red96), biotinylated peptide on streptavidin tips, 5H2 in solution, steady state fit with 1:1 model
# [1] = target: T2, WT1330-348 presented by DP5 on K562 …; assay: flow cytometry on peptide-pulsed K562 transfectants, PE anti-mouse secondary
# [2] = target: T3, WT1330-348 presented by DP2 on K562 …; assay: as above
# [3] = target: T5, WT1330-348 presented by DP4 on K562 cells (human, UniProt P20036 29-260; P04440 30-258); assay: as above
# T5 construct: whole, on cells; Exogenously pulsed peptide
# HLA-DP4 [4] = target: T6, HLA-DP4 (human, UniProt P20036 29-222; P04440 30-225, limits assumed); assay: cell-based competitive binding assay on T2/DP4 cells, graded WT1328-348 against reference peptide Oxy271-287
# T6 construct: whole, on cells; also called T2/DP4
# HLA-DP2 = target: T4, HLA-DP2; assay: cell-based competitive binding assay on T2/DP2 cells, reference peptide Oxy271-287
# HLA-DP4 [5] = target: T6, HLA-DP4; assay: cell-based competitive binding assay on T2/DP4 cells, reference peptide Oxy271-287
# T6 sequence (P20036 29-222 limits assumed, chain 1 of 4, other chains not shown): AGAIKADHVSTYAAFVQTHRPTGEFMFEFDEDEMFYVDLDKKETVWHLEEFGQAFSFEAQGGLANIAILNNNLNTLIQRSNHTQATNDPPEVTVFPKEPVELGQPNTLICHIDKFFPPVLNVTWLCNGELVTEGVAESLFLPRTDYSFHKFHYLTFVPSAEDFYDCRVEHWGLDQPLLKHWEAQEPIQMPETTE
# T6 sequence (P04440 30-225 limits assumed, chain 2 of 4, other chains not shown): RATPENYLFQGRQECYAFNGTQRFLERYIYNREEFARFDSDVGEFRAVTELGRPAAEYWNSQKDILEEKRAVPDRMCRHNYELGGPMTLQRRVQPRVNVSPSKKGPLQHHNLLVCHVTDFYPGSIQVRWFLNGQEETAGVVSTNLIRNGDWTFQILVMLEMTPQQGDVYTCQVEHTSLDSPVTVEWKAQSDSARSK
binder,measurement,setting,value
"WT1-specific mAb, 5H2 (antibody, V domains shown, also called clone 5H2; 5H2 mAb) VH: EVQLQQSGAELVRPGALVKLSCKASGFNIKDYYMHWVKQRPEQGLEWIGWIDPENGNTIYDPKFQGKASITADTSSNTAYLQLSSLTSGDTAVYYCTRDGYYMVFAYWGQGTLVTVSA VL: DIQMTQSPSSLSASLGGKVTITCKASQDINKCIAWYKHKPGKGPRLLIHYTSILQPGIPSRFSGSGSGRDYSFSISNLEPEDIATYYCLQYDNLYTFGGGTKLEIK",Kd,WT1330-348,~50 nM
same,binding result,[1],binds
same,binding result,[2],binds
same,binding result,[3],binds
PGCNKRYFKLSHLQMHSRKHT (also called 21-mer peptide) [WT1328-348],binding result,HLA-DP4 [4],binds
CMTWNQMNL (Negative control peptide; also called HLA-A2 restricted peptide) [WT1235-243],binding result,HLA-DP2,no binding (tested: any tested concentration)
same,binding result,HLA-DP4 [5],no binding (tested: any tested concentration)
